This is an account of results in FireProtDB (doi:10.1021/bi00492a006).

The chains are these.
B1: Ribonuclease, P00648 (parent)
chain: MMKMEGIALKKRLSWISVCLLVLVSAAGMLFSTAAKTETSSHKAHTEAQVINTFDGVADYLQTYHKLPDNYITKSEAQALGWVASKGNLADVAPGKSIGGDIFSNREGKLPGKSGRTWREADINYTSGFRNSDRILYSSDWLIYKTTDHYQTFTKIR

This data set covers variants of B1. As to conditions: Bacillus amyloliquefaciens; pH 6.3; 25 °C; Urea; Fluorescence; MES-NaOH 50 mM; reversible: yes; structure 1BNI; whole UniProt chain shown.

Consider MMKMEGIALKKRLSWISVCLLVLVSAAGMLFSTAAKTETSSHKAHTEAQVINTFDGVAAYLQTYHKLPDNYITKSEAQALGWVASKGNLADVAPGKSIGGDIFSNREGKLPGKSGRTWREADINYTSGFRNSDRILYSSDWLIYKTTDHYQTFTKIR, for which the “ddG of mutation (higher = less stable)” value was -0.11 kcal/mol, the denaturant m value stood at 2.33 kcal/mol/M, the “denaturant midpoint (higher = more stable)” value (“denaturant midpoint” for short) was found to be 4.33 M and the unfolding free energy is 10.1 kcal/mol.

In the case of MMKMEGIALKKRLSWISVCLLVLVSAAGMLFSTAAKTETSSHKAHTEAQVINTFDGVAAYLQRYHKLPDNYITKSEAQALGWVASKGNLADVAPGKSIGGDIFSNREGKLPGKSGRTWREADINYTSGFRNSDRILYSSDWLIYKTTDHYQTFTKIR, the “ddG of mutation (higher = less stable)” value worked out at 0.13 kcal/mol, the denaturant m value was 2.24 kcal/mol/M, the “denaturant midpoint” value was 4.4 M and the unfolding free energy is 9.88 kcal/mol.

For the variant MMKMEGIALKKRLSWISVCLLVLVSAAGMLFSTAAKTETSSHKAHTEAQVINTFDGVADYLQRYHKLPDNYITKSEAQALGWVASKGNLADVAPGKSIGGDIFSNREGKLPGKSGRTWREADINYTSGFRNSDRILYSSDWLIYKTTDHYQTFTKIR, the “ddG of mutation (higher = less stable)” value came out at 0.78 kcal/mol, the denaturant m value turned out to be 1.94 kcal/mol/M, the “denaturant midpoint” value is 4.75 M and the unfolding free energy was 9.23 kcal/mol.
